Laboratory results from patent publication US8344120B2, “Nucleic acid molecules encoding rage fusion proteins” (TransTech Pharma, Inc., priority 2006, dated 2013).
Values joined by “and” are separate entries in the source; they are usually repeats but may differ in a detail not shown here. Equal values may be shown once.

Legend:
S100b (S100) = molecular target: T1, S100b (S100) (Homo sapiens, UniProt P04271); assay: In vitro ligand binding ELISA, immobilized S100b; conditions: ligand 5 micrograms per well; fusion protein at increasing dilutions, 37° C. one hour
T1 sequence (P04271 1-92): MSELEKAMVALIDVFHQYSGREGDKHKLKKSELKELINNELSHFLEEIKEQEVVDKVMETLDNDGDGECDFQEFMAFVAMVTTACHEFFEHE
Description: (§1) For example, the RAGE fusion protein may be used in a binding assay to identify potential RAGE ligands. In one example embodiment of such a binding assay, a known RAGE ligand may coated onto a solid substrate (e.g., Maxisorb plates) at a concentration of about 5 micrograms per well, where each well contains a total volume of about 100 microliters (4). The plates may be incubated at 4° C. overnight to allow the ligand to absorb or bind to the substrate. Alternatively, shorter incubation periods at higher temperature (e.g., room temperature) may be used. […] The RAGE fusion protein bound to the immobilized ligand may be detected in a variety of ways. […] The bound complex may be detected by adding the alkaline phosphatase substrate, para-nitrophenylphosphate (PNPP), and measuring conversion of PNPP to para-nitrophenol (PNP) as an increase in absorbance at 405 nm. […] In the absence of ligand (i.e., coating with only BSA) there was no increase in absorbance. […] Binding was detected by the addition of an immunodetection complex containing a monoclonal mouse anti-human IgG1 diluted 1:11,000 to a final assay concentration (FAC) of 21 ng/100 μL, a biotinylated goat anti-mouse IgG diluted 1:500, to a FAC of […], and an avidin-linked alkaline phosphatase. […]

amphoterin (Ampho) = molecular target: T2, amphoterin (Ampho) (Homo sapiens, UniProt P09429); assay: In vitro ligand binding ELISA, immobilized amphoterin; conditions: ligand 5 micrograms per well; fusion protein at increasing dilutions, 37° C. one hour
T2 sequence (P09429 1-215): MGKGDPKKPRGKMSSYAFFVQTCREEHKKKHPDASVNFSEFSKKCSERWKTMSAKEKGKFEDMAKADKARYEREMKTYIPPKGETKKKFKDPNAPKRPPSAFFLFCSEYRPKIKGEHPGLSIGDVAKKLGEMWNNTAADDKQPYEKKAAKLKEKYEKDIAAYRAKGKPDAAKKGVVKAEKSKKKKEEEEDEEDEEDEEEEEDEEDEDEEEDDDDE
Description: as §1

[1] = test system: allogeneic rejection of transplanted islet cells; assay: Allogeneic islet transplantation in diabetic B6 mice; format: in vivo; conditions: for day of graft loss for each animal: BALB/c islets in B6 mice; for day of graft loss, Mean: n 8
Description: C57BL/6J (6-8 week old) (B6) mice were made diabetic by a single intravenous injection of streptozotocin (STZ) (Sigma Chemical Co., St. Louis, Mo.) at 200 mg/kg.
BALB/cJ (6-8 week old) (BALB) mice served as donors for islet transplantation, thus providing an allo-mismatch for islet transplants.
Mice (BALB/c) were anesthetized with ketamine HCl/xylazine HCl solution (Sigma, St. Louis Mo.). After intraductal injection of 3 ml of cold Hank's balanced salt solution (HBSS, Gibco, Grand Island N.Y.) containing 1.5 mg/ml of collagenase P (Roche Diagnostics, Branchburg, N.J.), pancreata were surgically procured and digested at 37° C. for 20 mins. Islets were washed with HBSS and purified by discontinuous gradient centrifugation using Polysucrose 400 (Cellgro, Herndon Va.) having four different densities (26%, 23%, 20%, and 11%). The tissue fragments at the interface of the 20% and 23% layers were collected, washed and resuspended in HBSS. Individual islets, free of attached acinar, vascular and ductal tissues were handpicked under an inverted microscope, yielding highly purified islets for transplantation.
Streptozotocin-induced diabetic C57BL/6 (B6) mice received islet grafts within 2 days of the diagnosis of diabetes. BALB/cJ (6-8 week old) (BALB) mice served as donors for allogeneic islet transplantation. For transplantation, 500-600 freshly isolated islets (i.e., approximately 550 islet equivalents) from donor mice were picked up with an infusion set and transplanted into the subcapular space of the right kidney of a recipient.
Test compounds were administered as soon as the islets were transplanted; administration continued for about 60 days, depending upon how the control animal was faring.
Islet graft function was monitored by serial blood glucose measurements daily for the first 2 weeks after islet transplantation, followed by every other day thereafter. Reversal of diabetes was defined as blood a glucose level of less than 200 mg/dl on two consecutive measurements. Graft loss was determined when blood glucose exceeded 250 mg/dl on two consecutive measurements.

binding to immobilized S100b (increase in absorbance at 405 nm) (S100b (S100)): specifically interact
binding to immobilized amphoterin (increase in absorbance at 405 nm) (amphoterin (Ampho)): specifically interact
B1: TTP-4000: four domain RAGE fusion protein: human RAGE N-terminal sequence (to position 251) linked to human IgG Fc (γ1) without hinge; SEQ ID NO: 34/56 (protein)
chain: QNITARIGEPLVLKCKGAPKKPPQRLEWKLNTGRTEAWKVLSPQGGGPWDSVARVLPNGSLFLPAVGIQDEGIFRCQAMNRNGKETKSNYRVRVYQIPGKPEIVDSASELTAGVPNKVGTCVSEGSYPAGTLSWHLDGKPLVPNEKGVSVKEQTRRHPETGLFTLQSELMVTPARGGDPRPTFSCSFSPGLPRHRALRTAPIQPRVWEPVPLEEVQLVVEPEGGAVAPPSVFLFPPKPKDTLMISRTPEVTCVVVDVSHEDPEVKFNWYVDGVEVHNAKTKPREEQYNSTYRVVSVLTVLHQDWLNGKEYKCKVSNKALPAPIEKTISKAKGQPREPQVYTLPPSRDELTKNQVSLTCLVKGFYPSDIAVEWESNGQPENNYKTTPPVLDSDGSFFLYSKLTVDKSRWQQGNVFSCSVMHEALHNHYTQKSLSLSPGK
day of graft loss for each animal ([1]; 300 ug + 30 ug qod ip): 12 day (2×) and 11 day (2×) and 8 day (2×) and 13 day and 14 day
day of graft loss, Mean ([1]; 300 ug + 30 ug qod ip): 11.125 days
day of graft loss for each animal ([1]; 300 ug LD + 100 ug qod ip): 13 day (2×) and 12 day and 16 day (2×) and 15 day and 14 day (2×)
day of graft loss, Mean ([1]; 300 ug LD + 100 ug qod ip): 14.125 days
time before detection of graft failure, in words ([1]; Groups 1 and 3 versus untreated, PBS or human IgG1): increase in the time before detection of graft failure
